Assay [1] deals with recombinant human EFNA1 His fusion protein (human) (UniProt P20827). Nature of the assay: BLI (ForteBio RED), antigen concentration series; column Affinity (nM).
Assay [2] concerns the target T1, recombinant human EFNA3 His fusion protein (human, UniProt P52797 23-214).
T1 construct: also called ephrinA3-His; immobilized human EFNA3; not shown: His tag
T1 sequence: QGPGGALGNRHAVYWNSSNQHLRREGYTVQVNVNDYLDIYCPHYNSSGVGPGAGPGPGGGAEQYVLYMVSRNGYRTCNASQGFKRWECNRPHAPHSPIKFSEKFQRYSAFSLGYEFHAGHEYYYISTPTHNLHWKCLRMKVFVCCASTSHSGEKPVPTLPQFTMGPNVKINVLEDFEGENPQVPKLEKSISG
The assay is described as above. As to the method: Various methods were used to analyze the immunochemical characteristics of selected EFNA1 and EFNA3 modulators generated as set forth above. Specifically, a number of these antibodies were characterized as to affinity, kinetics, binning, and cross reactivity with regard to cynomolgus and mouse homologs (e.g., by ForteBio). The reactivity of the modulators was also measured by Western blot using reduced and non-reduced samples to provide some indication as to whether the epitopes were linear or not. In addition, the antibodies were tested for their ability to neutralize (e.g., block receptor ligand interaction as per Example 11), and were benchmarked for their relative EC₅₀ of killing by in vitro cytotoxicity assay (e.g., as per Examples 12-14). The results of this characterization are set forth in tabular form in FIG. 8 for modulators that primarily react with EFNA1 and in FIG. 9 for modulators that primarily react with EFNA3. Affinities and kinetic constants kₒₙ and koff of the selected modulators were measured using bio-layer interferometry analysis on a ForteBio RED (ForteBio, Inc.) with a standard antigen concentration series.

A further assay addresses T2, mouse EFNA3 (mouse, UniProt O08545).
T2 construct: the sheet prints only 'Ms XR'; also called mouse ephrin-A3 homolog
T2 sequence (ligand, looked up): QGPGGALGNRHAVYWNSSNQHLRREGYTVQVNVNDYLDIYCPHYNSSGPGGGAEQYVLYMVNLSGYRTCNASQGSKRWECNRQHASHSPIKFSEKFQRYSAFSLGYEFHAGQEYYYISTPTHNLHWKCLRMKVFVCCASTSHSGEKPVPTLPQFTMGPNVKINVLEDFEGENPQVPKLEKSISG
Kind of assay: cross-reactivity with the mouse homolog (e.g. by ForteBio). A general note: Biolayer interferometry detects binding as a change in optical thickness at a sensor tip.

As usually defined, the Kd is the constant that tells how readily two partners part at equilibrium.

Sequence of recombinant human EFNA1 His fusion protein (human) (P20827 19-182 limits assumed): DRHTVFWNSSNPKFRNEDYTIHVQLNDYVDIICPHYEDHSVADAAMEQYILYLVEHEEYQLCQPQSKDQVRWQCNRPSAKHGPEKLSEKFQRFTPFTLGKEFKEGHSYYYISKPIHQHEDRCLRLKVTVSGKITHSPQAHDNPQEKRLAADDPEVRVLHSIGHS

B1: SC9.20 (antibody, V domains shown)
VH: DVQLQESGPGLVKPSQSLSLTCSVTGYSITSGYYWNWIRQFPGNRLEWMAYISYDGSNDYNPSLKNRISITRDTSKNQFFLKLNSVTTEDTATYYCARGYPILFAYWGQGTLVTVSA
VL: DIKMTQSPSSMNASLGERVSITCKTSQDINSYLSWLQQKPGKSPKTLIYRANRLVDGVPSRFSGSGSGQDYSLTISSLEYEDMGIYYCLQYDEFPLTFGIGTKLELK
Take B1: in assay [1], the Kd was determined as 0.5 nM.

B2: SC11.51 (antibody, V domains shown)
VH: EVQLQQSGPELVKPGASVKISCKASGYTFTDYYMNWVKQTHGKSLEWIGDITPNSGGPTYNQNFKGKATLTVDRSSTTAFMELRSLTSDDSAVYYCVRSAYYYGTNYDFDYWGQGTTLTVSS
VL: QIVLTQSPAIMSASPGEKVTMTCSASSSVTYMYWYQQKPGSSPKPWIYRTSNLASGVPTRFSGSGSGTSYSLTISSVEAEDTATYYCQQYSDYPLTFGAGTKLELK
notes: Murine monoclonal antibody from a hybridoma; also called EFNA3 modulator SC11.51
For the molecule B2, the Kd in assay [2] came to 1 nM.

B3: SC11.34 (antibody, V domains shown)
VH: DVHLQETGPGLVKPSQSLSVTCTVTGYSITSDYAWNWIRQFPGNKLEWMGYISYSGGTRYNPSVKSRISITRDTSKNQFFLQLNSVTTEDTATYYCARGPYAGYPAWFDYWGPGTLVTVSA
VL: ENVLTQSPAIMSASLGEKVTMSCRANSSINYMYWYQQKSDASPKLWIYYTSNLAPGVPARFSGSGSGNSYSLTISSMEGEDAATYYCQQFTSSPWTFGGGTKLEIK
notes: Murine monoclonal antibody from a hybridoma; also called EFNA3 modulator SC11.34
Consider B3, for which the binding result with mouse EFNA3 is “no binding”. Further, the Kd in assay [2] came to 2 nM.

B4: SC11.32 (antibody, V domains shown)
VH: QVQLQQPGAEIVRPGASVKLSCKASGYTFTAYWMHWVKQRPGQGPEWIGAIDPSDSYTYYNQKFKGKATLTVDTSSNSAYMQLSSLTSEDSAVYFCARWDYYDGNWGQGTTLTVSS
VL: DVVMTQTPLSLPVSLGDQASISCRSSQSLVHSDGNTYLHWYLQKPGQSPKLLIYRVSNRFSGVPDRFSGSGSGTDFTLKISRVEAEDLGVYFCSQSTHVPYTFGGGTKLEIK
notes: Murine monoclonal antibody from a hybridoma; also called EFNA3 modulator SC11.32
On to B4, for which the Kd in assay [2] amounted to 0.2 nM.

The values above are taken from patent publication US20140302034A1 (STEM CENTRX, published 2014).
